According to paper PMC3103430, “RecA Proteins from Deinococcus geothermalis and Deinococcus murrayi - Cloning, Purification and Biochemical Characterisation” (BMC Molecular Biology, 2011):

How the values were obtained:
[1] = test system: Nc1ncnc2c1ncn2[C@@H]1O[C@H](COP(=O)(O)OP(=O)(O)OP(=O)(O)O)[C@@H](O)[C@H]1O; assay: purified protein; type: biochemical, Deinococcus geothermalis; settings: ssDNA-dependent (80-nt oligonucleotide, 12.16 μM nucleotides), 11.56 mM MgCl2, 20 mM Tris-HCl pH 7.5, 37 °C, Hill fit, n 2.9
[2] = test system: Nc1ncnc2c1ncn2[C@H]1C[C@H](O)[C@@H](COP(=O)(O)OP(=O)(O)OP(=O)(O)O)O1; assay: purified protein; type: biochemical, Deinococcus geothermalis; settings: ssDNA-dependent (80-nt oligonucleotide, 12.16 μM nucleotides), 11.56 mM MgCl2, 20 mM Tris-HCl pH 7.5, 37 °C, Hill fit, n 1.2

DgeRecA (Deinococcus geothermalis DSM 11300)
Km [1]: 0.56 ± 0.018 mM
kcat [1]: 0.15 ± 0.004 s⁻¹
kcat/Km [1]: 270 ± 12 M⁻¹ s⁻¹
Km [2]: 0.62 ± 0.023 mM
kcat [2]: 0.21 ± 0.007 s⁻¹
kcat/Km [2]: 330 ± 10 M⁻¹ s⁻¹
